Assay [1] concerns the target 食蟹猴TSLP (cynomolgus monkey (食蟹猴), UniProt A0A7N9CAT7 29-159). The assay can be described thus: cell-based or functional assay.
Assay [2] deals with T1, 人胸腺基质淋巴细胞生成素 (Human Thymic Stromal Lymphopoietin, TSLP) (human, UniProt Q969D9 29-159). Put plainly: cell-based or functional assay.
The target of assay [3] is T1, 人胸腺基质淋巴细胞生成素 (Human Thymic Stromal …). The assay can be described thus: SPR, Biacore T200, 25°C, antibody captured on Protein A chip, human TSLP as analyte, 1:1 model, mean of three runs. On the technique in general: Surface plasmon resonance follows binding to a sensor surface in real time, without labels.

Chain of 食蟹猴TSLP (A0A7N9CAT7 entry or part of it): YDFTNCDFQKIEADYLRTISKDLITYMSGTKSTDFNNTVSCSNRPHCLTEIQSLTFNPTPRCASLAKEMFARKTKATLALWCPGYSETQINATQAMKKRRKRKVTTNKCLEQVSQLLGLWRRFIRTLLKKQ

B1: QX008N (HZD8G2-57) (antibody, V domains shown)
VH: EVQLVESGGGLVQPGGSLRLSCAASGFSLSSYYMSWVRQAPGKGLEWVGFISYGGSAYHATWAQGRFTISKDNSKNTLYLQMNSLRAEDTAVYYCAREFRSMTYGAEWGIWGQGTLVTVSS
VL: AYQMTQSPSSVSASVGDRVTITCQASESIYDTLAWYQQKPGKAPKLLIYSASSLASGVPSRFSGSGSGTDFTLTISSLQPEDFATYYCQQGYTMPDVDKNPFGGGTKVEIKR
The term Kd denotes the concentration at which binding is half-saturated. Usually koff stands for a measure of how fast the partners let go of each other. As a reminder, the kon is the rate constant with which the complex forms. In turn, B1 yielded a 抑制食蟹猴TSLP诱导的SW756-STAT5-Luciferase报告基因细胞STAT5磷酸化活性的IC50 in assay [1] of 0.889 ng/mL. Also, in assay [2], the “抑制人TSLP诱导的PBMC细胞释放TARC(CCL17)活性的IC50” value came to 77.1 ng/mL, the 抑制人TSLP诱导的SW756-STAT5-Luciferase报告基因细胞STAT5磷酸化活性的IC50 is 0.837 ng/mL and the “抑制人TSLP诱导的全血释放TARC(CCL17)活性的IC50” value was 0.839 ng/mL. In assay [3], this molecule displayed a dissociation constant Kd of 0.0175 nM, a koff of 2.99e-05 s⁻¹ and an association rate constant (kon) of 1.74e+06 M⁻¹ s⁻¹.

B2: Tezepelumab (antibody, V domains shown)
VH: QMQLVESGGGVVQPGRSLRLSCAASGFTFRTYGMHWVRQAPGKGLEWVAVIWYDGSNKHYADSVKGRFTITRDNSKNTLNLQMNSLRAEDTAVYYCARAPQWELVHEAFDIWGQGTMVTVSS
VL: SYVLTQPPSVSVAPGQTARITCGGNNLGSKSVHWYQQKPGQAPVLVVYDDSDRPSWIPERFSGSNSGNTATLTISRGEAGDEADYYCQVWDSSSDHVVFGGGTKLTVLG
Regarding B2, the 抑制食蟹猴TSLP诱导的SW756-STAT5-Luciferase报告基因细胞STAT5磷酸化活性的IC50 in assay [1] came to 1.88 ng/mL.

These data come from patent CN114605536A (JIANGSU QUANXIN BIOMEDICINE CO LTD, dated 2022).
